Data on 3 molecules can be found in patent US20240132589A1 (ONCORESPONSE, published 2024).

Common to all, as to assay: flow cytometry, transiently transfected HEK293-6E cells
In general terms: In flow cytometry, cells or beads pass a laser one at a time.

In assay [1] the target is T1, Human LILRB5 on transiently transfected HEK293-6E cells (human, UniProt O75023 24-590).
T1 construct: whole, on cells; also called hLILRB5
As to the method:
(§1) To determine that the anti-LILRB2 antibodies specifically bind to LILRB2 and not other LILRB and LILRA family members, a cross-reactivity assay was performed. Cross-reactivity of the LILRB2 antibodies to other LILRB proteins was assessed by antibody binding to transiently transfected HEK293-6E cells, measured by flow cytometry. Binding was evaluated to HEK293-6E cells transiently transfected with human LILRB-1, -2, -3, -4, and 5 plasmids (Origene, Nos. RC219949, RC217935, RC211228, RC220932, RC206516) or to cells transiently transfected with human LILRA-1, -2, -4, -5, and -6 plasmids (Origene, Nos. RC210808, RC205626, RC220452, RC212310 RC212965). […] Murine primary antibodies to LILRA and LILRB targets and corresponding isotype controls were used to confirm specific binding of all targets tested (R&D Systems) while an AF647 F(ab′)₂ fragment goat anti-mouse antibody (Jackson ImmunoResearch, No. 115-606-062) was used for the detection of bound positive control antibodies. No binding of B2A-IgG4 or B2A-IgG1 to LILRB-1, -3, -4, or -5 was observed, and no binding of either antibody to LILRA-1, -2, -4, -5, or -6 was observed, confirming specificity of these antibodies.

Assay [2] deals with T2, Human LILRA6 on transiently transfected HEK293-6E cells (human, UniProt Q6PI73 24-481).
T2 construct: whole, on cells; also called hLILRA6
As to the method:
as §1

The target in assay [3] is T3, Human LILRA4 on transiently transfected HEK293-6E cells (human, UniProt P59901 24-499).
T3 construct: whole, on cells; also called hLILRA4
As to the method: as §1

For assay [4], the target named is T4, Human LILRB4 on transiently transfected HEK293-6E cells (human, UniProt Q8NHJ6 22-448).
T4 construct: whole, on cells; also called hLILRB4
The procedure:
as §1

Assay [5] addresses T5, Human LILRA1 on transiently transfected HEK293-6E cells (human, UniProt O75019 17-489).
T5 construct: whole, on cells; also called hLILRA1
As to the method: as §1

Assay [6] has as its target T6, Human LILRB3 on transiently transfected HEK293-6E cells (human, UniProt O75022 24-631).
T6 construct: whole, on cells; also called hLILRB3
The procedure: as §1

Assay [7] has as its target T7, Human LILRA5 on transiently transfected HEK293-6E cells (human, UniProt A6NI73 42-299).
T7 construct: whole, on cells; also called hLILRA5
As to the method: as §1

The target of assay [8] is T8, Human LILRB2 on transiently transfected HEK293-6E cells (human, UniProt Q8N423 22-597).
T8 construct: whole, on cells; also called hLILRB2
The procedure:
as §1

Assay [9] has as its target T9, Human LILRA2 on transiently transfected HEK293-6E cells (human, UniProt Q8N149 24-483).
T9 construct: whole, on cells; also called hLILRA2
As to the method:
as §1

Assay [10] concerns the target T3, Human LILRA4 on transiently transfected …. As to the method:
as §1
(§2) Select humanized variant antibodies were tested for their ability to bind other LILRB or LILRA family members, using the method and commercially available positive control antibodies of Example 5.
The source holds these as a separate data set.

Assay [11] concerns the target T5, Human LILRA1 on transiently transfected …. As to the method:
as §1, §2
The source holds these as a separate data set.

In assay [12] the target is T7, Human LILRA5 on transiently transfected …. As to the method:
as §1, §2
The source holds these as a separate data set.

Assay [13] addresses T8, Human LILRB2 on transiently transfected …. The procedure:
as §1, §2
This is another data set of the same source.

Assay [14] deals with T1, Human LILRB5 on transiently transfected …. This is another data set of the same source.
In assay [15] the target is T2, Human LILRA6 on transiently transfected …. The source holds these as a separate data set.
Assay [16] concerns the target T3, Human LILRA4 on transiently transfected …. The source holds these as a separate data set.
For assay [17], the target named is T4, Human LILRB4 on transiently transfected …. This is another data set of the same source.
Assay [18] concerns the target T5, Human LILRA1 on transiently transfected …. This is another data set of the same source.
Assay [19] has as its target T6, Human LILRB3 on transiently transfected …. This is another data set of the same source.
The target in assay [20] is T7, Human LILRA5 on transiently transfected …. This is another data set of the same source.
Assay [21] has as its target T10, Human LILRB1 on transiently transfected HEK293-6E cells (human, UniProt Q8NHL6 24-650).
T10 construct: whole, on cells; also called hLILRB1

Assay [22] addresses T9, Human LILRA2 on transiently transfected …. This is another data set of the same source.

T10 sequence (Q8NHL6 24-650): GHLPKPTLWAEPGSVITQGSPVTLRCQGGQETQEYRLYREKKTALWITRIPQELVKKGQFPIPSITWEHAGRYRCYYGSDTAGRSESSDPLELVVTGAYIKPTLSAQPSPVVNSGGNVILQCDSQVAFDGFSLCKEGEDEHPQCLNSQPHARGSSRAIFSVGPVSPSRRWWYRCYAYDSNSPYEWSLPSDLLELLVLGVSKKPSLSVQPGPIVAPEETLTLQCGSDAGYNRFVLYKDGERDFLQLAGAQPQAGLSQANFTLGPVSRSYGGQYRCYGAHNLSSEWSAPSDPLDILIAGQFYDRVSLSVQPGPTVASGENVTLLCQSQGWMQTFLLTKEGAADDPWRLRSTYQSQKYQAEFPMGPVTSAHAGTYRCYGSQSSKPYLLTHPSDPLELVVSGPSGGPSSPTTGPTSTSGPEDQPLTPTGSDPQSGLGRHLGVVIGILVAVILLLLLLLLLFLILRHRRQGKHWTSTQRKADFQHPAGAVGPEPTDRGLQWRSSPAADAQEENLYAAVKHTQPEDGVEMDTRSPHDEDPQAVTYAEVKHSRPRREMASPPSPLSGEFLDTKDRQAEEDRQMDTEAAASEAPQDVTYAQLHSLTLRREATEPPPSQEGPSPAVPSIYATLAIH
T3 sequence (P59901 24-499): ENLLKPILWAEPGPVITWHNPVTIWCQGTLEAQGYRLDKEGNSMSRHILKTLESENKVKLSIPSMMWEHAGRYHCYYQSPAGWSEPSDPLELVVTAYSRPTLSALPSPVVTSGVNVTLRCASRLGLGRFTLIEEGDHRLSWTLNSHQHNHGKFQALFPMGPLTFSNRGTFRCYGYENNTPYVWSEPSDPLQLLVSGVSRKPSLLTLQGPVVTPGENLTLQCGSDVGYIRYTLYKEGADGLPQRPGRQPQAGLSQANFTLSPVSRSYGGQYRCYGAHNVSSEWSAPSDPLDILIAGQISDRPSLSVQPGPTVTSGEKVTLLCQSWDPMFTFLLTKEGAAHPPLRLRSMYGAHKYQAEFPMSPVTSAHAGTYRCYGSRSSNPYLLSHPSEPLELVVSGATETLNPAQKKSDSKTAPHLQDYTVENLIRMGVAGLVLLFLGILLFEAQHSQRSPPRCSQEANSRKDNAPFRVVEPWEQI
T2 sequence (Q6PI73 24-481): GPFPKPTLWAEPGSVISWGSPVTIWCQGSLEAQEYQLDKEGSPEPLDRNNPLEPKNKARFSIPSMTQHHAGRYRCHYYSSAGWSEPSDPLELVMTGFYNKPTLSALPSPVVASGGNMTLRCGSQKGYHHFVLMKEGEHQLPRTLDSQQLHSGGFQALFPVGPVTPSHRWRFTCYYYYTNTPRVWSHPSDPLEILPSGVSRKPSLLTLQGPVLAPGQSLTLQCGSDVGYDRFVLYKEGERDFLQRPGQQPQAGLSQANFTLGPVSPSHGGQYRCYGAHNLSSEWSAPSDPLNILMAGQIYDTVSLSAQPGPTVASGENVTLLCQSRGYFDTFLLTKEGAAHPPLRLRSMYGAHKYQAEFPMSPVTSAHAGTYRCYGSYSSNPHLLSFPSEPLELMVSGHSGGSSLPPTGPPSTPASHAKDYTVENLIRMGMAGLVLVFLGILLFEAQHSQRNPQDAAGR
T1 sequence (O75023 24-590): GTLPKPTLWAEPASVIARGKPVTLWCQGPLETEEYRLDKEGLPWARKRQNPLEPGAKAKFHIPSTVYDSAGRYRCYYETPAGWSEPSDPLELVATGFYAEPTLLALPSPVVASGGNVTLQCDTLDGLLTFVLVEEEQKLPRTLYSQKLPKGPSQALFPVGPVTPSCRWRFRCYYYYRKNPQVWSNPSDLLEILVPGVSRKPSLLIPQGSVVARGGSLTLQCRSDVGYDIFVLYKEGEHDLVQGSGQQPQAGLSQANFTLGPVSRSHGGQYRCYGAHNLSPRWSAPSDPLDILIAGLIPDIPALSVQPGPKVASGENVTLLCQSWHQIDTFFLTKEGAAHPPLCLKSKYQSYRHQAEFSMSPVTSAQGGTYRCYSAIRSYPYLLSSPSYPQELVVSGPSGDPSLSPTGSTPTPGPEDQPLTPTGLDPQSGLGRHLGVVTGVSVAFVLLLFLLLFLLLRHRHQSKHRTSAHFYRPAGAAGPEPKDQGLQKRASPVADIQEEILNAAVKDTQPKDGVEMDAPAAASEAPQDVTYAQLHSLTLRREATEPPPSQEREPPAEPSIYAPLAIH
T8 sequence (Q8N423 22-597): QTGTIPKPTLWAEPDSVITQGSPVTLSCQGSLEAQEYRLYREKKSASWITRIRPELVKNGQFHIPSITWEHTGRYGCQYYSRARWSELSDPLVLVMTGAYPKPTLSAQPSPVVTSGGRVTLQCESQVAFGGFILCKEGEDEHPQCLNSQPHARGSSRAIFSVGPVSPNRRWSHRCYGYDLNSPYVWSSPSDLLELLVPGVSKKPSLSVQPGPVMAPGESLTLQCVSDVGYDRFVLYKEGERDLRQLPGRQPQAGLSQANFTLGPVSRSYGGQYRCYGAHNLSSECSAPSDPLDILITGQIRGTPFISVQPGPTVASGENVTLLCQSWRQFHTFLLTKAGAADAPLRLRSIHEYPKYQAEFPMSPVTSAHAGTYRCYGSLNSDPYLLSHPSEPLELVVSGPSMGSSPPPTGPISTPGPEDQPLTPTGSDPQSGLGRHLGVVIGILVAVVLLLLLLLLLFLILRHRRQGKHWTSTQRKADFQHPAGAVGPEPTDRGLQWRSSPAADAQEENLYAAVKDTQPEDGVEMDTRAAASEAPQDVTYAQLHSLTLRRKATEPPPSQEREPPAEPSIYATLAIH
T7 sequence (A6NI73 42-299): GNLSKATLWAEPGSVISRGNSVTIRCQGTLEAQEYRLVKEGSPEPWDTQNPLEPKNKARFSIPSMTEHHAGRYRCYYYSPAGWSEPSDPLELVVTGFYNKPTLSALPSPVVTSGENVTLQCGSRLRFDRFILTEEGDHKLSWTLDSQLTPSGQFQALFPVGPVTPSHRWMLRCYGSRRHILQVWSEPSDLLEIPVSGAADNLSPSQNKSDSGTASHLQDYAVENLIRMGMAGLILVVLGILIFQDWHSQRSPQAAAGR
T9 sequence (Q8N149 24-483): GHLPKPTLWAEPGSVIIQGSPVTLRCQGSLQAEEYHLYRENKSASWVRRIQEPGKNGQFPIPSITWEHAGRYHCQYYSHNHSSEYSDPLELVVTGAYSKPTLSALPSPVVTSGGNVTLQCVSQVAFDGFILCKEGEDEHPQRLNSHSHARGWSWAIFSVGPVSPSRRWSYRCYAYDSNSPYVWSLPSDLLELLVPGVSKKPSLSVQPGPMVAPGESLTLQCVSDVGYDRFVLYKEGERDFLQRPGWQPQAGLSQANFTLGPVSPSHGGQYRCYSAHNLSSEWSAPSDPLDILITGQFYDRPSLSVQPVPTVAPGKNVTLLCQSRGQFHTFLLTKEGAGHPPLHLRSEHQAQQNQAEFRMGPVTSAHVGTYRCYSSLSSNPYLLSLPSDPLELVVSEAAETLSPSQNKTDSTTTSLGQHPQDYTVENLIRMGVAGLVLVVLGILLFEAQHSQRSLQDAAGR
T5 sequence (O75019 17-489): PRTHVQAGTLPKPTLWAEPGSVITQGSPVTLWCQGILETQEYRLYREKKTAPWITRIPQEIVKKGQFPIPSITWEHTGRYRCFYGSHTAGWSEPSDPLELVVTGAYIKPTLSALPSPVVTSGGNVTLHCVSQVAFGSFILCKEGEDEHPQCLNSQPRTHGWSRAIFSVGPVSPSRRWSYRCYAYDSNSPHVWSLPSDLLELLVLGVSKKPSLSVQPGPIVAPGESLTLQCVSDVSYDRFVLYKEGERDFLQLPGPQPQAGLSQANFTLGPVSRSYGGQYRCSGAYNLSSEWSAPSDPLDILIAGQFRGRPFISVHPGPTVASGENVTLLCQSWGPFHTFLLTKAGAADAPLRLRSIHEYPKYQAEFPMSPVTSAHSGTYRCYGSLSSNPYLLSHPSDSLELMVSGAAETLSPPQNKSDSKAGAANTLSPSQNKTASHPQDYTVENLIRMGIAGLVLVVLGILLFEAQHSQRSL

B1: B2A-IgG1 (antibody)
heavy: not shown
light: DVVMTQTPSSVSAALGGTVTIKCQASQSIGSNLAWYQLKPGQRPKLLIYAAATLASGGSSRFKGSGSGTDFTLTISDLECADAATYYCQSYVSGSSDVAFGGGTEVVVKRTVAAPSVFIFPPSDEQLKSGTASVVCLLNNFYPREAKVQWKVDNALQSGNSQESVTEQDSKDSTYSLSSTLTLSKADYEKHKVYACEVTHQGLSSPVTKSFNRGEC
notes: Rabbit variable regions on human IgG1 / kappa constant regions; AF647-conjugated in some flow assays; also called B2A-IgG1 chimera; anti-LILRB2 B2A-IgG1
With B1, the MFI was found to be 147 MFI in assay [1]; 223 MFI in assay [2]; 116 MFI in assay [3]; 40 MFI in assay [4]; 898 MFI in [5]; 163 MFI in assay [6]. Further, the MFI was 127 MFI in assay [7], 11300 MFI in assay [8] and 38 MFI in assay [9]. Also, in assay [10], the “BMAX [gMFI]” value came out at 104 gMFI. The entries for the “Bmax (MFI)” value in [11], in [12] and in [13] were 837 MFI, 124 MFI and 11300 MFI, respectively. The binding result in assay [14], in assay [15], in assay [16], in [17], in assay [18] and in [19] was “no binding” each time. Moreover, the binding result in [20], in assay [21] and in assay [22] was “no binding” throughout.

B2: B2A-IgG4 (antibody)
heavy: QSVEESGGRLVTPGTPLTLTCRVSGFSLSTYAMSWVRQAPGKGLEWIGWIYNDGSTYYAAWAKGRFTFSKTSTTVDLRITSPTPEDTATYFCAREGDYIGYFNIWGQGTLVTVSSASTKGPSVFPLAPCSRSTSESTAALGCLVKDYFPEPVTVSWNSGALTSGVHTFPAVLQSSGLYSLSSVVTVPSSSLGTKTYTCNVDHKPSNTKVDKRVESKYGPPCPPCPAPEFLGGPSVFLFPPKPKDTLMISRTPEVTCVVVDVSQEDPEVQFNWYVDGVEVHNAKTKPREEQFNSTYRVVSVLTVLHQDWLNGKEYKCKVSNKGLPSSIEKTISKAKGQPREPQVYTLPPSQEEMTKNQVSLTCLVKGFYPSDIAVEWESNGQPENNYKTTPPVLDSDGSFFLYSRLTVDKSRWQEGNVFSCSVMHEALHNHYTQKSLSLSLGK
light: DVVMTQTPSSVSAALGGTVTIKCQASQSIGSNLAWYQLKPGQRPKLLIYAAATLASGGSSRFKGSGSGTDFTLTISDLECADAATYYCQSYVSGSSDVAFGGGTEVVVKRTVAAPSVFIFPPSDEQLKSGTASVVCLLNNFYPREAKVQWKVDNALQSGNSQESVTEQDSKDSTYSLSSTLTLSKADYEKHKVYACEVTHQGLSSPVTKSFNRGEC
notes: Rabbit variable regions on human IgG4 / kappa constant regions; also called B2A-IgG4 chimera; Parent B2A-IgG4
Consider B2, for which the MFI in [1] stood at 21 MFI; in assay [2], 22 MFI; in assay [3], 30 MFI; in [4], 20 MFI; in assay [5] it was 73 MFI; in assay [6], 22 MFI. For the same molecule, the values for the MFI in assay [7], in assay [8] and in assay [9] were 21 MFI, 1160 MFI and 31 MFI, respectively. In addition, the binding result in assay [14], in assay [15], in assay [16], in assay [17], in [18] and in assay [19] was “no binding” each time. Further, the binding result in assay [20], in assay [21] and in assay [22] was “no binding” throughout.

B3: B2H1-55 (antibody, V domains shown)
VH: EVQLLESGGGLVQPGTSLTLSCAASGFSLSTYAMSWVRQAPGKGLEWIGWIYNDGSTYYAAWAKGRFTISKDTSKTTLYLQITSLRAEDTATYFCAREGDYIGYFNIWGQGTLVTVSS
VL: DVVMTQTPSSVSAALGGTVTIKCQASQSIGSNLAWYQLKPGQRPKLLIYAAATLASGGSSRFKGSGSGTDFTLTISSLEPADAATYYCQSYVSGSSDVAFGGGTEVVVK
notes: Humanized variant, human IgG1 / kappa; also called humanized variant B2H1-55; humanized LILRB2 antibody B2H1-55
Take B3: in [10], the “BMAX [gMFI]” value came out at 112 gMFI. In addition, the “Bmax (MFI)” value in assay [11] amounted to 783 MFI; in assay [12], 129 MFI; in assay [13], 11000 MFI. Further, the binding result in assay [14], in assay [15], in assay [16], in [17], in [18] and in [19] was “no binding” throughout. Moreover, the binding result in assay [20], in assay [21] and in assay [22] was “no binding” throughout.
